Columns and labels:
[1] = molecular target: the molecule itself; experiment: native MS; purified Atg18 exchanged into 200 mM ammonium acetate; Q-ToF Ultima modified for high mass complexes
[2] = molecular target: the molecule itself; experiment: FRET or BRET; stopped-flow, 0.5 µM acceptor-labelled Atg18 C113 bound to LUVs with PtdIns(3,5)P2 (1 mM total lipid) mixed with 0.5 µM donor-labelled Atg18 C113 free in solution; 25 °C, HP150 buffer with 0.1 mM TCEP; dye pairs Alexa Fluor 488/546 and Oregon Green/Texas Red

B1: Pichia angusta Atg18 (wild type) (natural protein, Pichia angusta (Hansenula polymorpha))
chain: MASPNPLAFEAATAAHEVAASYVTEHKPRKNDNINFANFNQDFSCVSVGYSNGYKIYNCEPFGQCYSKSDGSIGIVEMLFSSSLLAIVGMGEQHSLSPRRLKIINTKRQTTICELTFPGAILAVKLNRERLVVLLEETIYIYDINNMRLLHTIETPSNPNGLIALSPSSENNYLAYPSPQKLAPNPQTEVTLHSNPQTVRNGDVIIFDAKTLQPTSVIEAHRTSLAAIALSKDGLLLATASDKGTIIRVFSVATGIKLYQFRRGTYPTKIYSLAFSPDNRFVIASSATETVHIFRLGEEEAANTIKSANKKARLTKAQVPNPLETSPDIYPHNQHTSSDEDEELNEDEEDLDGDEDEDLEDDAHVPVSLQRGRSSSSTGSFHSSESMTDKLKEPLVDNSRKSVARMLRRTSQSLGRKAAEKMGTYLPPKFSSILEPNRHFASLKVPASKETKTVVGVGSKIWDDLIPSVYLKDDANSITETSEDLVNKKLVHIMVITSEGFFYKFGLDPERGGDCVLLHQQSLFG
notes: Atg18 of Pichia angusta (Hansenula polymorpha), UniProt entry Q5QA94, synthetic gene in pET-28a; also called PaAtg18; source: E. coli, purified (HisTrap, Superdex 200); not shown: His-tag, N-terminal, kept
[1]
  stoichiometry N: ≤ 4

B2: Atg18 C113 single cysteine mutant, fluorescently labelled (natural protein, Pichia angusta (Hansenula polymorpha))
chain: MASPNPLAFEAATAAHEVAASYVTEHKPRKNDNINFANFNQDFSAVSVGYSNGYKIYNAEPFGQAYSKSDGSIGIVEMLFSSSLLAIVGMGEQHSLSPRRLKIINTKRQTTICELTFPGAILAVKLNRERLVVLLEETIYIYDINNMRLLHTIETPSNPNGLIALSPSSENNYLAYPSPQKLAPNPQTEVTLHSNPQTVRNGDVIIFDAKTLQPTSVIEAHRTSLAAIALSKDGLLLATASDKGTIIRVFSVATGIKLYQFRRGTYPTKIYSLAFSPDNRFVIASSATETVHIFRLGEEEAANTIKSANKKARLTKAQVPNPLETSPDIYPHNQHTSSDEDEELNEDEEDLDGDEDEDLEDDAHVPVSLQRGRSSSSTGSFHSSESMTDKLKEPLVDNSRKSVARMLRRTSQSLGRKAAEKMGTYLPPKFSSILEPNRHFASLKVPASKETKTVVGVGSKIWDDLIPSVYLKDDANSITETSEDLVNKKLVHIMVITSEGFFYKFGLDPERGGDAVLLHQQSLFG
modifications: C113 labelled with Alexa Fluor 488 C5 maleimide (donor) or Alexa Fluor 546 C5 maleimide (acceptor); in the repeat with Oregon Green 488 maleimide or Texas Red C2 maleimide
notes: Atg18 of Pichia angusta (Hansenula polymorpha), UniProt entry Q5QA94, synthetic gene in pET-28a; single cysteine mutant that keeps C113; That the other four are alanine in it is read from this; Two differently labelled copies of the same protein were mixed; also called C113 mutant; source: E. coli, purified (HisTrap, Superdex 200), labelled with maleimide dye
[2]
  binding result: binds

From PMC5656675, “Structure based biophysical characterization of the PROPPIN Atg18 shows Atg18 oligomerization upon membrane binding” (Scientific Reports, 2017)
